Reference: patent publication US10184137B2, “Method of producing isoprene monomer” (AJINOMOTO CO., INC., priority 2014, dated 2019)
Values joined by “and” are separate entries in the source; they are usually repeats but may differ in a detail not shown here. Equal values may be shown once.

Tests used:
[1] = target: Nitrosopumilus maritimus mevalonate kinase (nmr), wild type, SEQ ID NO:9, N-terminal His-tag (Nitrosopumilus maritimus, UniProt A9A427); assay: Examination of product inhibition on nmr-derived mevalonate kinase; type: biochemical; conditions: 1 mM mevalonate as substrate, 50 mM ATP
[2] = substrate: Nc1ncnc2c1ncn2[C@@H]1O[C@H](COP(=O)(O)OP(=O)(O)OP(=O)(O)O)[C@@H](O)[C@H]1O; assay: purified protein, by the assay type; conditions: 5 mM potassium mevalonate, pH 7.6, 30° C., Lineweaver-Burk plot
Procedure: Each obtained plasmid was used for transformation of E. coli BL21(DE3). […] When OD600 reached approximately 0.5, 0.1 mM IPTG (for cva, mma, nmr, and sce) or 1 mM (for mcl and mpd) of IPTG was added, and then the mixture was kept at 20° C. overnight to induce the target protein. […] After centrifugation (28,000×g, 30 min), the supernatant was adsorbed onto His-Trap HP (GE Healthcare) to elute the target protein by linear concentration gradient of Imidazol (final concentration 0.5 M). Obtained protein was dialyzed by using an external solution composed of 20 mM Tris-HCl (pH 8.0) containing 1 mM DTT and 50 mM NaCl. Dialyzed protein was designated as purified enzyme. Protein quantity was measured with Bio-RAD protein assay kit and BSA standard condition.
Decrease in absorbance at 340 nm at 30° C. was measured to determine the enzyme activity. JASCO Corporation's spectrophotometer (V-650) was used in this study. […] Km value was calculated by Lineweaver-Burk plot.

mevalonate kinase [3] = assay: Examination of product inhibition on each mevalonate kinase (absorbance at 386 nm, PMK addition); type: biochemical; conditions: 1 mM mevalonate as substrate; in words
Procedure: When decrease in absorbance stopped, purified PMK was added to measure further decrease in absorbance at 386 nm.
FIG. 18 presents the SDS-PAGE profile of the purified PMK. […] Then, absorbance decreased further and finally absorbance at 386 nm decreased to 0.3 in all reaction systems. Therefore, it is inferred that mevalonate is converted into diphosphomevalonate via phosphomevalonate by adding PMK to each MVK.

mevalonate kinase [4] = assay: Measurement of activity and Km value of purified mevalonate kinase (PK/LDH coupled, 340 nm); type: biochemical
Procedure: (§1) Each obtained plasmid was used for transformation of E. coli BL21(DE3). […] When OD600 reached approximately 0.5, 0.1 mM IPTG (for cva, mma, nmr, and sce) or 1 mM (for mcl and mpd) of IPTG was added, and then the mixture was kept at 20° C. overnight to induce the target protein. Harvested cells were suspended in buffer solution A (50 mM sodium phosphate, 0.3 M NaCl and 20 mM Imidazol), and then the cells were disrupted with an ultrasonic disruptor (TOMY: UD-201). […] After centrifugation (28,000×g, 30 min), the supernatant was adsorbed onto His-Trap HP (GE Healthcare) to elute the target protein by linear concentration gradient of Imidazol (final concentration 0.5 M). Obtained protein was dialyzed by using an external solution composed of 20 mM Tris-HCl (pH 8.0) containing 1 mM DTT and 50 mM NaCl. Dialyzed protein was designated as purified enzyme. Protein quantity was measured with Bio-RAD protein assay kit and BSA standard condition.
(§2) Decrease in absorbance at 340 nm at 30° C. was measured to determine the enzyme activity. JASCO Corporation's spectrophotometer (V-650) was used in this study. Millimolar extinction coefficient of NADH used in this study was 6.22 mM^−1 cm^−1. […] Km value was calculated by Lineweaver-Burk plot.
(§3) Measured activity of each enzyme (JABS/min) was presented on Table 9 for the calculation of apparent Km value (Km app.) of each enzyme. Table 10 presents Km app., Vmax, molecular weight of the enzyme protein, protein concentration in the enzyme solution and calculated kcat.
Activity was indicated by dABS/min when 10 μl of each enzyme was added to 1 ml of reaction solution.

mevalonate kinase [5] = assay: Expression analysis and activity confirmation of His-tagged mevalonate kinases from pET-21a(+) and pET-28b(+); type: biochemical; conditions: His-spinTrap eluate after dialysis, 10 μl enzyme solution
Procedure: Each obtained plasmid was used for transformation of E. coli BL21(DE3). […] When OD600 reached approximately 0.5, IPTG was added to the solution to final concentration of 1 mM. It was then cultured overnight at 20° C. Harvested cells were suspended in the buffer solution consisting of 50 mM sodium phosphate, 0.3 M NaCl and 20 mM Imidazol. Then the cells were disrupted with an ultrasonic disruptor (TOMY: UD-201, output level=3.5). After centrifugation (20,000×g, 20 min), disrupted cells were adsorbed to His-spinTrap (GE Healthcare). After washing with the same buffer solution, protein was eluted with the buffer solution consisting of 50 mM sodium phosphate, 0.3 M NaCl and 0.5 M imidazole (pH7.5). Eluate was dialyzed overnight at 4° C. with the external solution composed of 20 mM Tris-HCl (pH7.5) and 50 mM NaCl. Then, enzyme activity of each eluate in the internal dialysis solution was measured.
Activity of the internal dialysate (about 0.2 ml each) was measured with the 10 μl of enzyme solution (Table 8). Enzyme expression level was compared on activity basis between pET-21a(+) and pET-28b(+). […] It is inferred that expression level is higher in pET-28b(+). Therefore, purified enzyme expressed in pET-28b(+) was used in the further examinations.
Values were presented by decrease in absorbance per unit time per 10 μl in the enzyme reaction measurement system (dABS/min/10 μl).
as §2

mevalonate kinase [6] = assay: Inhibition of each mevalonate kinase by DMAPP, GPP, FPP or DPM; type: biochemical
Procedure: Since GPP and FPP solutions contain methanol, methanol which was needed to keep the same methanol level at the addition to the reaction system was added to the reaction solution, which was designated as control.
Respective effect of the added 5 mM DMAPP, 0.1 mM GPP, and 0.1 mM FPP on the activity of each enzyme was measured. […] Contrarily, mcl-derived enzyme was activated by 5 mM DMAPP and its activity increased by 20% from that of the control.
Activity when 10 μl of each enzyme was added to 1 ml of the reaction system was represented by dABS/min
Effect of 1 mM diphosphomevalonate (DPM) on each enzyme was also studied.

[7] = tested on: mcl-derived mevalonate kinase; assay: Effect of IPP and low-concentration DMAPP on mcl-derived mevalonate kinase activity
[8] = substrate: Nc1ncnc2c1ncn2[C@@H]1O[C@H](COP(=O)(O)OP(=O)(O)OP(=O)(O)O)[C@@H](O)[C@H]1O; assay: purified protein, by the assay type; type: biochemical, Corynebacterium variabile; conditions: other: cva, 5 mM potassium mevalonate, pH 7.6, 30° C., Lineweaver-Burk plot
Procedure: as §1
(§4) Decrease in absorbance at 340 nm at 30° C. was measured to determine the enzyme activity. […] Km value was calculated by Lineweaver-Burk plot.
as §3

[9] = substrate: Nc1ncnc2c1ncn2[C@@H]1O[C@H](COP(=O)(O)OP(=O)(O)OP(=O)(O)O)[C@@H](O)[C@H]1O; assay: purified protein, by the assay type; type: biochemical, Saccharomyces cerevisiae; conditions: other: sce, 5 mM potassium mevalonate, pH 7.6, 30° C., Lineweaver-Burk plot
Procedure: as §1, §4, §3

[10] = substrate: Nc1ncnc2c1ncn2[C@@H]1O[C@H](COP(=O)(O)OP(=O)(O)OP(=O)(O)O)[C@@H](O)[C@H]1O; assay: purified protein, by the assay type; type: biochemical, Methanosarcina mazei; conditions: other: mma, 5 mM potassium mevalonate, pH 7.6, 30° C., Lineweaver-Burk plot
Procedure: as §1, §4, §3

[11] = substrate: Nc1ncnc2c1ncn2[C@@H]1O[C@H](COP(=O)(O)OP(=O)(O)OP(=O)(O)O)[C@@H](O)[C@H]1O; assay: purified protein, by the assay type; type: biochemical, Nitrosopumilus maritimus; conditions: other: nmr, 5 mM potassium mevalonate, pH 7.6, 30° C., Lineweaver-Burk plot
Procedure: as §1, §4, §3

Molecule: C[C@@](O)(CCOP(=O)(O)O)CC(=O)O [phosphomevalonate, mevalonate-5-phosphate]
- Product inhibition [1]: may cause product inhibition

B1: Methanosaeta concilii mevalonate kinase (mcl), wild type, SEQ ID NO:6, N-terminal His-tag (Methanothrix soehngenii GP6) (protein)
chain: MTMASAPGKIILFGEHAVVSGTAALGGAIDLRARAIVQSLPGRILIETDDLSLRGFSLDLSTGEIRSASAAYATRYVSAVLKELGARDVRVMIESDIPPAAGLGSSASIVVATVAALNGHLGLELSQKEIAALSYRIEKEVQKGRGSPMDTALATYGGYQRIADDNQRLDLPPLEMVVGYTRLPHDTFSLVEKVQLLKERYPDLVGPIFQAIGAISERAAPLIREQRLKDLGELMDINHGLLEALGVGSRELSELVYAARNTGGALGAKLTGAGGGGCMIALPGMAGKDALLVALRQARGMAFAAMMGCEGVRLEVA
- Km ([2]; other: mcl): 74 ± 1.4 µM

B2: mcl: mevalonate kinase derived from Methanosaeta concilii (SEQ ID NO:6), His-tagged purified enzyme (protein, listed as Methanosaeta concilii)
chain: B1 chain
modifications: His-tag
- course of decrease in absorbance at 386 nm until PMK addition (mevalonate kinase [3]): almost linear decrease in absorbance
- dABS/min at ATP 0.04 mM (mevalonate kinase [4]; ATP 0.04 mM, potassium mevalonate 5 mM, 10 μl enzyme in 1 ml, replicate values): 0.06058 dABS/min and 0.06029 dABS/min and 0.05985 dABS/min
- dABS/min at ATP 0.2 mM (mevalonate kinase [4]; ATP 0.2 mM, potassium mevalonate 5 mM, 10 μl enzyme in 1 ml, replicate values): 0.1223 dABS/min and 0.1222 dABS/min (2×)
- dABS/min at ATP 1 mM (mevalonate kinase [4]; ATP 1 mM, potassium mevalonate 5 mM, 10 μl enzyme in 1 ml, replicate values): 0.1584 dABS/min (2×) and 0.1585 dABS/min
- affinity to mevalonate and ATP compared with the other enzymes (mevalonate kinase [4]; in words): higher affinity to mevalonate and ATP than the other enzymes
- dABS/min at mev 0.002 mM (mevalonate kinase [4]; potassium mevalonate 0.002 mM, ATP 5 mM, 10 μl enzyme in 1 ml, replicate values): 0.02277 dABS/min and 0.02381 dABS/min and 0.02265 dABS/min
- dABS/min at mev 0.01 mM (mevalonate kinase [4]; potassium mevalonate 0.01 mM, ATP 5 mM, 10 μl enzyme in 1 ml, replicate values): 0.08427 dABS/min and 0.0843 dABS/min and 0.08431 dABS/min
- dABS/min at mev 0.04 mM (mevalonate kinase [4]; potassium mevalonate 0.04 mM, ATP 5 mM, 10 μl enzyme in 1 ml, replicate values): 0.1675 dABS/min and 0.1677 dABS/min and 0.1671 dABS/min
- dABS/min at mev 0.2 mM (mevalonate kinase [4]; potassium mevalonate 0.2 mM, ATP 5 mM, 10 μl enzyme in 1 ml, replicate values): 0.2123 dABS/min (2×) and 0.2125 dABS/min
- enzyme activity, pET21 system (C terminal Tag) (mevalonate kinase [5]): 0.003 dABS/min/10 μl
- enzyme activity, pET28 system (N terminal Tag) (mevalonate kinase [5]): 0.023 dABS/min/10 μl
- enzyme activity, Control (mevalonate kinase [6]; Table 11 control without terpenyl diphosphate (methanol added)): 0.1482 dABS/min
- enzyme activity, Control (mevalonate kinase [6]; Table 12 control without DPM): 0.1373 dABS/min
- effect of 5 mM DMAPP on enzyme activity (mevalonate kinase [6]; in words): activated
- enzyme activity, Control (MeOH) ([7]; 70% methanol control for IPP): 0.1594 dABS/min
- enzyme activity, Control (H2O) ([7]; control for DMAPP): 0.154 dABS/min

B3: Corynebacterium variabile mevalonate kinase (cva), wild type, SEQ ID NO:3, N-terminal His-tag (Corynebacterium variabile) (protein)
chain: MAPHVGHGQTVAKIILFGEHSVVYGHPAIAMPLRTLRMIARVEPTDGPGTLSGLGWTGPITEAPARFSSIVKAAEVASDFAGHPGAGLNISTESEFPPERGLGSSAAAAGAVIRAVLDAFDTPATPRELFDLTQEAETVAHGRPSGLDAVATSAEAPVHFQAGQATDLEFSPDAWIVIADSGVEGSTRETVGHVRGRFEAEPDIITALLNRLGEITDEVVVDLRTGDVQGMGARMTEAHGILGQLGVSNTQLDALVTASLGAGALGAKLTGGGRGGCVIALAATEEDAENVEKALVDAGARGTWVHAPATGQMAGEVMQ
- Km [8]: 1347 ± 29^ μM

B4: Saccharomyces cerevisiae mevalonate kinase (sce, ERG12), wild type, NP_013935.1, N-terminal His-tag (Saccharomyces cerevisiae S288C) (protein)
chain: MSLPFLTSAPGKVIIFGEHSAVYNKPAVAASVSALRTYLLISESSAPDTIELDFPDISFNHKWSINDFNAITEDQVNSQKLAKAQQATDGLSQELVSLLDPLLAQLSESFHYHAAFCFLYMFVCLCPHAKNIKFSLKSTLPIGAGLGSSASISVSLALAMAYLGGLIGSNDLEKLSENDKHIVNQWAFIGEKCIHGTPSGIDNAVATYGNALLFEKDSHNGTINTNNFKFLDDFPAIPMILTYTRIPRSTKDLVARVRVLVTEKFPEVMKPILDAMGECALQGLEIMTKLSKCKGTDDEAVETNNELYEQLLELIRINHGLLVSIGVSHPGLELIKNLSDDLRIGSTKLTGAGGGGCSLTLLRRDITQEQIDSFKKKLQDDFSYETFETDLGGTGCCLLSAKNLNKDLKIKSLVFQLFENKTTTKQQIDDLLLPGNTNLPWTS
notes: His-tag (N); made in house; host or cells: E. coli BL21(DE3)
- Km [9]: 464 ± 7.6 µM

B5: Methanocella paludicola mevalonate kinase (mpd), wild type, SEQ ID NO:1, N-terminal His-tag (Methanocella paludicola SANAE) (protein)
chain: MTMCSAPGKVFLFGEHAVVYGKRAIACAIDLRTTVEVSRKSRGVHIHSAFKDEPDKNLYIKTAVKRMQKCADIRNVNIAVSSRIPVASGLGSSAAVTVATIGALNEEFSAGLSKKDIAYMAYQTELEVQGAASPTDTFVSTMGGTVVVPDMRTLPPITCGIVVGHTGISKSTSRMVSRVRTLKEKYPDVIDGIMDSIGDISARGEDLIKQNDYRSIGELMNVNQGLLDALGITIPELSLQIYAARQHGAYGAKITGAGGGGCMVAICDDKNCKEIATAIGRSYGDSFISKPTAEGIFIQ
- Km ([2]; other: mpd): 119 ± 2.1 µM

B6: Methanosarcina mazei mevalonate kinase (mma), wild type, SEQ ID NO:12, N-terminal His-tag (Methanosarcina mazei Go1) (protein)
chain: MVSCSAPGKIYLFGEHAVVYGETAIACAVELRTRVRAELNDSITIQSQIGRTGLDFEKHPYVSAVIEKMRKSIPINGVFLTVDSDIPVGSGLGSSAAVTIASIGALNELFGFGLSLQEIAKLGHEIEIKVQGAASPTDTYVSTFGGVVTIPERRKLKTPDCGIVIGDTGVFSSTKELVANVRQLRESYPDLIEPLMTSIGKISRIGEQLVLSGDYASIGRLMNVNQGLLDALGVNILELSQLIYSARAAGAFGAKITGAGGGGCMVALTAPEKCNQVAEAVAGAGGKVTITKPTEQGLKVD
- Km [10]: 687 ± 9.3 µM

B7: Nitrosopumilus maritimus mevalonate kinase (nmr), wild type, SEQ ID NO:9, N-terminal His-tag (Nitrosopumilus maritimus SCM1) (protein)
chain: MKSKASAPGKVILFGEHFVVYGVKAILCAINKRIAVTAEKIDERKISIKSNIGHLELEPNKPISEINSPLKPFYYLANKIIQDKNFGIKIDVESEIPLGVGLGSSSACCVAGAAAISNLFENNSKEEILKLAIEAEKTIFQNTSGADCTVCTFGGLMEYDKENGFSKIESEPNFHLVIANSNVEHSTESVVAGVRKFKKNNEAEFSKLCKDESHLIENVLELLKENNIRELGERVIKNQEYLERIGISNAKLREMIQTGQNSSFGAKITGAGGGGCIFALTDESNLENTIKEFKEKNHECFSVKIDFKGLDTF
- Km [11]: 1006 ± 20^ μM
